Measurements from paper PMC8602292, “Acyl carrier protein promotes MukBEF action in Escherichia coli chromosome organization-segregation” (Nature Communications, 2021).

T1: MukB (wild type, MukB-His) (Escherichia coli, UniProt P22523 1-1486)
T1 construct: MukB, the SMC protein of Escherichia coli MukBEF; wild type; The end of the tag is read from the printed name 'MukB-His'; The same construct was used with co-purified AcpP or depleted of AcpP by an extended salt gradient on heparin; also called WT MukB; AcpP-depleted MukB; source: E. coli C3013I (NEB), pET vector, purified (TALON, HiTrap Heparin, Superdex 200); not shown: His tag, C-terminal, kept
T1 sequence (looked up): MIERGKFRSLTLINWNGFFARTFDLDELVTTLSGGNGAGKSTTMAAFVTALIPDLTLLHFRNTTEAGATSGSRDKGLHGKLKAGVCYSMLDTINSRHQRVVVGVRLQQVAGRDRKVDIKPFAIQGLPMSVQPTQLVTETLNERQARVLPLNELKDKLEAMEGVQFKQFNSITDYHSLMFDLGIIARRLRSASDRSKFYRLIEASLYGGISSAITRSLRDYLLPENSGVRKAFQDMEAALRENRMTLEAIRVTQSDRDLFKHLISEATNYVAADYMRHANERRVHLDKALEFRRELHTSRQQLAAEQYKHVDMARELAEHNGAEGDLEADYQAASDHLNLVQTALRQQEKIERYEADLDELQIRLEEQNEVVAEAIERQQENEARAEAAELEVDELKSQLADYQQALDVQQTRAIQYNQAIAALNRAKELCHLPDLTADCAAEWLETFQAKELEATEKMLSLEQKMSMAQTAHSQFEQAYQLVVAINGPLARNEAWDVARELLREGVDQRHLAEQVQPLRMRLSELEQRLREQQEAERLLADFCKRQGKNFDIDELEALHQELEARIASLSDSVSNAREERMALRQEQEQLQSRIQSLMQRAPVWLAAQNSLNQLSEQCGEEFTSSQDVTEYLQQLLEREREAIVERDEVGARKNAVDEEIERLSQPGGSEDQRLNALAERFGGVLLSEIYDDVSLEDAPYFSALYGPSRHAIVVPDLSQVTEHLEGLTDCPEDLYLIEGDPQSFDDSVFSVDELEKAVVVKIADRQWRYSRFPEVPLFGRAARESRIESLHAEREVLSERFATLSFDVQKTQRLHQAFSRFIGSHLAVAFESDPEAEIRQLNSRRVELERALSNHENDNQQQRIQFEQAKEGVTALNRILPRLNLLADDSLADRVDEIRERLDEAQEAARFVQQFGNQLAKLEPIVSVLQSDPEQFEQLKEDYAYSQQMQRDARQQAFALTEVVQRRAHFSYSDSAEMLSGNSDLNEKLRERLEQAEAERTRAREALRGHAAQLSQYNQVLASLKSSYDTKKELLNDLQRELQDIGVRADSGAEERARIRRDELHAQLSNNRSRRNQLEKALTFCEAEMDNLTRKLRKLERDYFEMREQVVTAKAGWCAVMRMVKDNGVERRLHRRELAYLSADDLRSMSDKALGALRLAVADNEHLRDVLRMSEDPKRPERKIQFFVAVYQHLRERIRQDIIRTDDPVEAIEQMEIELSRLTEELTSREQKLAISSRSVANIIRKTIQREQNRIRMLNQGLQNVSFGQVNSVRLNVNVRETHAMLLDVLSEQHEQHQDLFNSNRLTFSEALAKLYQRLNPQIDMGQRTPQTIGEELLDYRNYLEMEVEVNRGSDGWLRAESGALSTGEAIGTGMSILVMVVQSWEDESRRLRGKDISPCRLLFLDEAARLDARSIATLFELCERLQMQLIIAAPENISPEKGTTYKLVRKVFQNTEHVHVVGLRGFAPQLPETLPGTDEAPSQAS


Molecular target: T1, MukB (wild type, MukB-His)
Test: native MS; mixtures of MukB, MukE, MukF and AcpP at various concentrations of MukB; 200 mM ammonium acetate pH 8.0
Conditions: both partners purified

Row | binding result | Binder
1 | binds | MukE (MukE-His) (natural protein, Escherichia coli, UniProt P22524 1-234, looked up, MukE, the KITE protein of Escherichia coli MukBEF; The end of the tag is read from the printed name 'MukE-His'; also called KITE protein MukE; source: E. coli C3013I (NEB), pET vector, purified (TALON, HiTrap DEAE FF, Superdex 200)) MSSTNIEQVMPVKLAQALANPLFPALDSALRSGRHIGLDELDNHAFLMDFQEYLEEFYARYNVELIRAPEGFFYLRPRSTTLIPRSVLSELDMMVGKILCYLYLSPERLANEGIFTQQELYDELLTLADEAKLLKLVNNRSTGSDVDRQKLQEKVRSSLNRLRRLGMVWFMGHDSSKFRITESVFRFGADVRAGDDPREAQRRLIRDGEAMPIENHLQLNDETEENQPDSGEEE
2 | binds | MukF (His-MukF) (natural protein, Escherichia coli, UniProt P60293 1-440, looked up, MukF, the kleisin of Escherichia coli MukBEF; The end of the tag is read from the printed name 'His-MukF'; also called kleisin MukF; source: E. coli C3013I (NEB), pET vector, purified (TALON, HiTrap DEAE FF, Superdex 200)) MSEFSQTVPELVAWARKNDFSISLPVDRLSFLLAVATLNGERLDGEMSEGELVDAFRHVSDAFEQTSETIGVRANNAINDMVRQRLLNRFTSEQAEGNAIYRLTPLGIGITDYYIRQREFSTLRLSMQLSIVAGELKRAADAAEEGGDEFHWHRNVYAPLKYSVAEIFDSIDLTQRLMDEQQQQVKDDIAQLLNKDWRAAISSCELLLSETSGTLRELQDTLEAAGDKLQANLLRIQDATMTHDDLHFVDRLVFDLQSKLDRIISWGQQSIDLWIGYDRHVHKFIRTAIDMDKNRVFAQRLRQSVQTYFDEPWALTYANADRLLDMRDEEMALRDEEVTGELPEDLEYEEFNEIREQLAAIIEEQLAVYKTRQVPLDLGLVVREYLSQYPRARHFDVARIVIDQAVRLGVAQADFTGLPAKWQPINDYGAKVQAHVIDKY
